Assay: soluble on expression in E. coli; label from the status in PepcDB or PDB records

Row | Sequence | soluble on expression in E. coli
1 | AARRKIAKDLGKQVTQAMQTLSMQGGRFEAALTGGAPSAHGSEQVEFLVAGHAGSTPRPLAKVASGGELSRISLALSVIASRAARVPTLIFDEVDSGVGGAVAEAVGKLLRELGQRHQVLCVTHLPQVAACAHAQYRVSKVESGGSTRSRIAELDAEARVEEVARMLGGIKITATTRDHAREMLGGHTAPAA | not soluble
2 | AAVIEKRATCSNGKTVGDASCCAWFDVLDDIQQNLFHGGQCGAEAHESIRLVFHDSIAISPAMEAQGKFGGGGADGSIMIFDDIETAFHPNIGLDEIVKLQKPFVQKHGVTPGDFIAFAGAVALSNCPGAPQMNFFTGRAPATQPAPDGLVPEPFHTVDQIINRVNDAGEFDELELVFMLSAHSVAAVNDVDPTVQGLPFDSTPGIFDSQFFVETQLRGTAFPGSGGNQGEVESPLPGEIRIQSDHTIARDSRTACEWQSFVNNQSKLVDDFQFIFLALTQLGQDPNAMTDCSDVIPQSKPIPGNLPFSFFPAGKTIKDVEQACAETPFPTLTTLPGPETSVQRIPPPPGA | soluble
3 | ACAWLEAQEEEEVGFPVRPQVPLRPMTYKAAVDLSHFLKEKGGLEGLIHSQRRQDILDLWIYHTQGYFPDWQNYTPGPGVRYPLTFGWCYKLVPVEPDKVEEANKGENTSLLHPVSLHGMDDPEREVLEWRFDSRLAFHHVARELHPEYFKN | soluble
4 | ACTKNAIAQTGFNKDKYFNGDVWYVTDYLDLEPDDVPKRYCAALAAGTASGKLKEALYHYDPKTQDTFYDVSELQVESLGKYTANFKKVDKNGNVKVAVTAGNYYTFTVMYADDSSALIHTCLHKGNKDLGDLYAVLNRNKDAAAGDKVKSAVSAATLEFSKFISTKENNCAYDNDSLKSLLTK | soluble
5 | ADKNPGSENMTNTIGPHDRGGSSPIYNILNSYLTAYNGSHHLYDRMSFLCLSSQNTLNGACPSSDAPGTATIDGETNITLQFTEKRSLIKRELQIKGYKQFLFKNANCPSKLALNSSHFQCNREQASGATLSLYIPAGELNKLPFGGVWNAVLKLNVKRRYDTTYGTYTINITVNLTDKGNIQIWLPQFKSNARVDLNLRPTGGGTYIGRNSVDMCFYDGYSTNSSSLEIRFQDDNSKSDGKFYLKKINDDSKELVYTLSLLLAGKNLTPTNGQALNINTASLETNWNRITAVTMPEISVPVLCWPGRLQLDAKVKNPEAGQYMGNIKITFTPSSQTLDNKQVEKNITVTASVDPVIDLLQADGNALPSAVKLAYSPASKTFESYRVMTQVHTNDATKKVIVKLADTPQLTDVLNSTVQMPISVSWGGQVLSTTAKEFEAAALGYSASGVNGVSSSQELVISAAPSTAGTAPTAGNYSGVVSLVMTLGSDNKQVEKNITVTASVDPVIDLLLEHHHHHH | soluble
6 | ADRNLRDLLAPWVPDAPSRALREMTLDSRVAAAGDLFVAVVGHQADGRRYIPQAIAQGVAAIIAEAKDEATDGEIREMHGVPVIYLSQLNERLSALAGRFYHEPSDNLRLVGVTGTNGKTTTTQLLAQWSQLLGEISAVMGTVGNGLLGKVIPTENTTGSAVDVQHELAGLVDQGATFCAMEVSSHGLVQHRVAALKFAASVFTNLSRDHLDYHGDMEHYEAAKWLLYSEHHCGQAIINADDEVGRRWLAKLPDAVAVSMEDHINPNCHGRWLKATEVNYHDSGATIRFSSSWGDGEIESHLMGAFNVSNLLLALATLLALGYPLADLLKTAARLQPVCGRMEVFTAPGKPTVVVDYAHTPDALEKALQAARLHCAGKLWCVFGCGGDRDKGKRPLMGAIAEEFADVAVVTDDNPRTEEPRAIINDILAGMLDAGHAKVMEGRAEAVTCAVMQAKENDVVLVAGKGHEDYQIVGNQRLDYSDRVTVARLLGVIARSHH | soluble
7 | ADSVFISGHKNADMDSLGAALGIWRMSRLHDLTAYIIIDDQNLQRDVKLVIGKINDEVDAANEKLKNQATDGKTPKLIEQPFITEKKALSLATDQSLLVLVDHSRPSISAAGQLLEKLKSSLIVIDHHRIADESFSEKPILFYVEQYASSTCELVTELLGYEDRRKSPLTKVEATALLGGIQLDTKGFTSHSGSRTFDAASFLRAAGADAQLLSSFGKESK | not soluble
8 | AEIDTSSIVEMVQGAEDAPVEVIEYASYTCPHCAAFHEGPYKKLKADFIDTGKVRFIYREVYFDRYGLWASMVARCAGPEKFFGISDLIYKGQAEWSRAGGPAEIAEELRKIGRLAGIENDKLEACLGDATKAQTLVAWYQEHATRDDINSTPSFMINGKKVENQAYDGFKALIEAELGN | not soluble
9 | AEPDTESSELSGSVSYRIVSVVNTITASHWDEKELLDKAELIDYPVRKCAHMSEYAILTLLGFLTFSFLHGRGRFLVPIGVTFLYACTDEFHQLFVPGRAGR | not soluble
10 | AEQLRGEPWFHGKLSRREAEALLQLNGDFLVRESTTTPGQYVLTGSQSGQPKHLLLVDPEGVVRTKDHRFESVSHLISYHMDNHLPIISAGSELCLQQPVERKLLEH | soluble
11 | AFELPPLPYAHDALQPHISKETLEFHHDKHHNTYVVNLNNLVPGTEFEGKTLEEIVKTSSGGIFNNAAQVWNHTFYWNCLSPNAGGQPTGALADAINAAFGSFDKFKEEFTKTSVGTFGSGWGWLVKKADGSLALASTIGAGCPLTIGDTPLLTCDVWEHAYYIDYRNLRPKYVEAFWNLVNWAFVAEQFEGKTYKV | soluble
12 | AGDIAIIGLAGRYPKAANIHEFWNNLKEGKDCVSEIPESRWDWQRLEGITSPSGKDISKWGGFIDDPDCFDPQFFRITPREAETMDPQERLFLETCWETIEDAGYTPKTLAKPKGRNKRQHVGVFAGVMHKDYTLVGAEEASAENVFPLSLNYAQIANRVSYFCNFHGPSMAVDTVCSSSLTAVHLALESIRHGECDVALAGGVNLSLHPNKYMTYGVWDMFSTDGHCRTFGKDGDGYVPAEGIGAVLLKPLRQAEEDGDRIYAVIKGSAVNHVGTVSGISVPSPVSQADLIETCLEKTGIDPRTISYVEAHGTGTSLGDPIEIQGLVKAFRQYTQDRQFCSIGSVKSNIGHAESAAGISGLSKVALQLHHQKLVPSLHSEELNPYVDFEKSPFYVQHETETWKQPVIKENGEDVPYPRRAGISSFGATGSNAHIILEEH | soluble
13 | AGQQQPLPVPPLLESRRGQPLFMTVQRAHWSFTPGTRASVWGINGRYLGPTIRVWKGDDVKLIYSNRLTENVSMTVAGLQVPGPLMGGPARMMSPNADWAPVLPIRQNAATLWYHANTPNRTAQQVYNGLAGMWLVEDEVSKSLPIPNHYGVDDFPVIIQDKRLDNFGTPEYNEPGSGGFVGDTLLVNGVQSPYVEVSRGWVRLRLLNASNSRRYQLQMNDGRPLHVISGDQGFLPAPVSVKQLSLAPGERREILVDMSNGDEVSITCGEAASIVDRIRGFFEPSSILVSTLVLTLRPTGLLPLVTDSLPMRLLPTEIMAGSPIRSRDISLGDDPGINGQLWDVNRIDVTAQQGTWERWTVRADEPQAFHIEGVMFQIRNVNGAMPFPEDRGWKDTVWVDGQVELLVYFGQPSWAHFPFYFNSQTLEMADRGSIGQLLVNPVPRSHHHHHH | soluble
14 | AHHHHHHASAKWVCKICGYIYDEDAGDPDNGISPGTKFEELPDDWVCPICGAPKSEFEKLEDGSACYSSSPEVIVLREYLLIKIHEDGVIKIPQELAYEVGLVKGAYFLVEIDTDIKELHVERVALPGKKLVEIELVVEDKPGVLAKIAGILGKNGINILFNEAEELESLGLSAIVAVVDVSGAKISLKDLESTLKEINEVKEVKIVEIE | soluble
15 | AHHHHHHASAKWVCKICGYIYDEDAGDPDNGISPGTKFEELPDDWVCPICGAPKSEFEKLEDGSPKLMTGFVRASGYANKVRRVLFAITRGKVFPEEVVKAAGELNKIIFEKLQEMGVKKEDVVRISVDFNIEDGKIVWNLDSLEIETYKKEEEEKLALAMEEVEHMEKMFEETVKELEALSDKLREISKEISELVERMKQEYTGLKLRSE | soluble
16 | AHHHHHHGSINNAQPPIYEEGLEELMQELKGKYHATNDYRWAILNSDITFITVGTPSKPDGSIDLTHVKQAAKSIGKALRDKEDYHVVVVKSTVLPGTTEEVVKPILEKHSGKKAFKDFGLAMNPEFLREGVALKDFLNPDRIVLGVQDEKTKKILEELYEPINAPKLIVDIKTAEMIKYASNAFLATKISFANEIGNICKKLGIDSWKVFEGVGLDHRISPHFFKTGIGFGGSCFPKDVKALIKKAEEIGENPLILKAVIEVNERQPLKMIELLKKHIPELKGRKIGVLGLAFKPNTDDVRETRAYIIIKKLLEEGASVIAYDPKAMENFKRFYPDVSGGIEYATSPEDVLKSTEIILIVTEWPDFEELDYSGKIVIDGRRIKAAERTARIYEGVCW | soluble
17 | AHHHHHHGSKAFISIDLEGLPYIVSREHLFVKGALYNEARKIATKIAKIAAEKLHEEGFEEIVIADSHGPMVNIIPEEMPSYVSIVRGFPRPLSMVAFGKGSDIAIFLGYHAKAGTSFATFDHTYSGATIDKIIISGIEVSEFLLNSMVLGEWGVPIGLVAGDEALKEDLKYVPWAEFIPLKKASGRYSALSPSMEAIEKELKAGIKRAVEKLNNKELRAFKIETPVDVEIRFLNSAYAEVADLLPGVERIDGKTIRFTANTVEDAYKIMEVLTLAAAGVSYIVSR | not soluble
18 | AHHHHHHGSKAMEFVGYKKSGKTTCVENVAKVLKKEKGYRVAIAKSMHSNFDKEETDTWKFSRIADYVIVHAQDIDGLLFKAKDVNALFSMVSADILLIEGFKSITHVPKVICAKSEEEVRELNNGLAIAVSGVIANKGIKEIDGLPVINATKEPEKLAELVEKKGFMLPNIDCGLCGYNCAEMAKLIVKGEKTVKDCVVLSSTPKVTIKIDGQVLPLKDWVQELVEKTIKGMLSAMKGYREGRKIEIVIKE | soluble
19 | AHHHHHHGSKERLEKLVKFMDENSIDRVFIAKPVNVYYFSGTSPLGGGYIIVDGDEATLYVPELEYEMAKEESKLPVVKFKKFDEIYEILKNTETLGIEGTLSYSMVENFKEKSNVKEFKKIDDVIKDLRIIKTKEEIEIIEKACEIADKAVMAAIEEITEGKREREVAAKVEYLMKMNGAEKPAFDTIIASGHRSALPHGVASDKRIERGDLVVIDLGALYNHYNSDITRTIVVGSPNEKQREIYEIVLEAQKRAVEAAKPGMTAKELDSIAREIIKEYGYGDYFIHSLGHGVGLEIHEWPRISQYDETVLKEGMVITIEPGIYIPKLGGVRIEDTVLITENGAKRLTKTERELL | not soluble
20 | AHHHHHHGSKLIEMLKEITQVPGISGYEERVREKIIEWIKDYADYKVDEIGNLIVELGEGEVKAVFMAHMDEIGLLITGITQDGKLRFRKVGGIDDRLLYGRHVDVITENGKLDGVIGALPPHLNVKGVKDVVPWYQLTIDIGAESKEEALSLGVKPLDYAVFKKHFSVLNNKIVSTRSLDDRFGVVALVQAIRNLVDHELSGKFIFAFTVQEEIGLKGAKFLAEKYSPEYAFAIDSFACCSELTGDVRLGGGAVIRAVDNSAIYSRDLARKVWEIAEKNNIPIQIGVTGGGTDASVFQHKSKVLALSVPMKYLHSEVEMLNVKDLEALIALIEAITFEI | soluble
21 | AHHHHHHGSKLTHVDEKGVKMVEVGHKKDMYRRAIAKGRIKLKPETIKLIREGKIEKGNVLAAAQIAGILAVKKTFDIIPLCHPIPLTGVDITFDFGEDYIEVTCEVRAIYKTGVEMEALTGVSVALLTIWDMVKAVEKDEKGQYPYTKIEEIRVVEKIKEERS | soluble
22 | AHHHHHHGSKVVALLSSGIDSPVAIHLMASRGVEVYPLHFRQDEVKERKVRKVVKKLQEIHGEKVKDPHTVNAYEVQAPVFEKLKEIKKGKWTCVFCKYTMYIVAESYAKKVGASAIITGDSLGQVASQTLDNLLVISTATKLPVIRPLIGLDKEEIVKIAKEIGTFEISIEEEPPCPFVPKFPVVRAGLGEFQKILSQVKDKLPRGDL | soluble

From the DeepSol protein solubility set
